± gives the standard deviation.
Test: protein stability index of a GFP-peptide fusion (GPS, HEK-293T) (PSI 1-6); higher = more stable
[1] = treatment: DMSO, c terminus: a fixed tail appended
[2] = treatment: MLN4924 1 uM, 8 h, c terminus: a fixed tail appended
[3] = treatment: DMSO, c terminus: native
[4] = treatment: MLN4924 1 uM, 8 h, c terminus: native
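Note: 24-mer peptide tiles fused after GFP, lentivirally expressed, FACS-sorted into six equal bins by GFP/DsRed ratio, decoded by Illumina sequencing, PSI is the read-weighted mean bin number.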

Row | Sequence | protein stability index [1] | protein stability index [2] | protein stability index [3] | protein stability index [4]
1 | TVVTGLGPDTQDLEGQSPPQSLPS [PBXIP1] | 5.07 ± 0.34 | 5.16 ± 0.098 | – | –
2 | EDEEEEEGENYQKGERGEDSSEEK [CHGB] | 5.622 ± 0.029 | 5.66 ± 0.21 | – | –
3 | RLQGLEADCVRGPDGVCLSGGRGP [PBXIP1] | 4.4 ± 0.082 | 4.24 ± 0.32 | – | –
4 | SVLSACDNLSDLVMVRWNKSLEWS [IQUB] | 2.04 ± 0.24 | 2.33 ± 0.12 | – | –
5 | TGDGWEFKLADPDEVARRWGKRKN [ETS2] | 4.34 ± 0.33 | 4.34 ± 0.26 | – | –
6 | GAYDFPSPEWDTVTPEAKDLINKM [CAMK2D] | 4.536 ± 0.038 | 4.07 ± 0.093 | – | –
7 | SQLSMKASLENSLEETKGRYCMQL [KRT16] | 3.44 ± 0.18 | 3.61 ± 0.31 | – | –
8 | GGKRRRDDISVDSLDFTKKILHTA [PPP2R2C] | 3.17 ± 0.21 | 3.77 ± 0.36 | – | –
9 | PAPLLVLCPSRAELDRWLYHLEKQ [PLEKHN1] | 2.62 ± 0.11 | 2.17 ± 0.29 | – | –
10 | SIKNSLKVAAISESPVAEKSAST [PTGFR] | – | – | 4.5 ± 0.14 | 4.27 ± 0.2
11 | CAFLLLRLLVGLALATLRVLRGLA [TMEM175] | 3.56 ± 0.37 | 3.35 ± 0.086 | – | –
12 | IFTTPNFDETSSATTISTSEDGSY [KMT2E] | 4.75 ± 0.13 | 4.67 ± 0.26 | – | –
13 | LAEYQDLTFLTKQEILLAHRRFCE [CIB1] | 2.3 ± 0.1 | 2.54 ± 0.38 | – | –
14 | ASQSLGSPMYFFLASLSFIDTVYS [OR4A15] | 2.89 ± 0.57 | 2.67 ± 0.96 | – | –
15 | AVFMWPGKDSRWLPSLVLARLVFV [SLC29A1] | 3.25 ± 0.68 | 2.67 ± 0.34 | – | –
16 | HLKKVASRYQNNIKNDKYGPWLEW [PRIM1] | 2.23 ± 0.38 | 2.3 ± 0.25 | – | –
17 | LFEEPAPQALATRALPCPAHVVFR [FCHSD1] | 3.13 ± 0.16 | 3.21 ± 0.19 | – | –
18 | EIFRQRFRQFGYQDSPGPREAVSQ [ZNF24] | 2.7 ± 0.21 | 3.25 ± 0.082 | – | –
19 | NYTATVRGLRGPNLTSPASITFTT [TNXB] | 2.66 ± 0.23 | 2.79 ± 0.41 | – | –
20 | SHFSRLSEEKLALDNNASASGNAT [C10orf62] | 5.03 ± 0.14 | 5.13 ± 0.26 | – | –
21 | GIVGLNNIKANDYANAVLQALSNV [USP39] | 2.25 ± 0.42 | 2.25 ± 0.45 | – | –
22 | VRVRQDSGAEGHSHSCYHDTRSGF [TRIM35] | 3.51 ± 0.25 | 3.62 ± 0.31 | – | –
23 | PHDRSQGDWAPPPEGGMEQALAGA [ZNF263] | 4.85 ± 0.26 | 4.83 ± 0.31 | – | –

Row | Sequence | protein stability index [1] | protein stability index [2] | protein stability index [3] | protein stability index [4]
24 | EDHKPGTFPKALTNGSFSPSGNNG [DLC1] | 4.89 ± 0.11 | 4.91 ± 0.37 | – | –
25 | LFAEEQAEGPNRLLYKDGFSTILH [LPCAT4] | 3.17 ± 0.24 | 3.1 ± 0.35 | – | –
26 | STKGSRSNLSTRDASILTEMPTQP [NETO1] | 4.52 ± 0.27 | 4.71 ± 0.24 | – | –
27 | MLLFLSVPQPRPPGARTRAGAARV [FBXO33] | 2.31 ± 0.26 | 2.13 ± 0.21 | – | –
28 | QTYQPPWKALSEFALQSDLDQPAF [ISL2] | 2.96 ± 0.28 | 3.04 ± 0.21 | – | –
29 | CKKLHIPLKAQNDLDISRIKRGNT [P2RY14] | 3.44 ± 0.33 | 3.65 ± 0.14 | – | –
30 | LTPGQSDSAKREVKQKISPYFKSN [FAN1] | 3.92 ± 0.19 | 3.97 ± 0.26 | – | –
31 | ESDDAFDTVTIPVPSEEPQESDQT [IQUB] | 5.69 ± 0.24 | 5.72 ± 0.3 | – | –
32 | VDATLEHVQDPQNTVKVQVLYPDG [INTS4] | 4.37 ± 0.12 | 4.49 ± 0.15 | – | –
33 | GPILQKDYVQLENQWETPPEDLQT [ZNF449] | 4.94 ± 0.11 | 5 ± 0.28 | – | –
34 | TLALILQIPTQNTQARQVMEREFN [PPFIA4] | 2.32 ± 0.34 | 2.39 ± 0.26 | – | –
35 | TLALEYTYGRRAKGHNTPKDIAHF [DYNC2LI1] | 2.74 ± 0.071 | 2.83 ± 0.22 | – | –
36 | STSEDSLVKQECIKEVVEKREACH [FAN1] | 5.52 ± 0.22 | 5.23 ± 0.092 | – | –
37 | SIMEMQAMEVNTSASEILYSAPPG [NFE2L1] | 3.81 ± 0.33 | 3.94 ± 0.28 | – | –
38 | TAAVLGLICEGLYPASIVDEPTFK [ZBED1] | 2.17 ± 0.26 | 2.19 ± 0.6 | – | –
39 | DRADYYLEEFKENAYKDLAWKHGN [PCMTD2] | 3.75 ± 0.084 | 3.07 ± 0.77 | – | –
40 | AADGPTVCCNPYHFSRLCGPESPP [SMAD6] | 3.65 ± 0.11 | 3.76 ± 0.24 | – | –
41 | QTEKTTRVRTVLNEKQLHTLRTCY [ISL2] | 2.66 ± 0.24 | 2.8 ± 0.33 | – | –
42 | WNDCISSGLRGGILIELAMRGRIY [GOLPH3L] | 2.89 ± 0.45 | 2.48 ± 0.53 | – | –
43 | MTHQNVELFKELSINVMKQLIGSS [GMCL1] | 2.35 ± 0.21 | 2.37 ± 0.57 | – | –
44 | GHEEWVGSAYLFVESSLDKVVLSD [TRADD] | 2.41 ± 0.45 | 2.45 ± 0.55 | – | –
45 | DDPENKKTSSSSKAGFTASPFTNL [CDC14A] | 4.92 ± 0.27 | 4.95 ± 0.14 | – | –
46 | RTITFEQFQEALEELAKKRFKDKS [TPPP] | 2.54 ± 0.11 | 2.74 ± 0.43 | – | –

Row | Sequence | protein stability index [1] | protein stability index [2] | protein stability index [3] | protein stability index [4]
47 | KDGNTPLHVAARYGHELLINTLIT [ANKRD44] | 2.19 ± 0.15 | 2.3 ± 0.46 | – | –
48 | IAHRGERRGIGGIFFDDLDSPSKE [CPOX] | 4.57 ± 0.4 | 4.72 ± 0.21 | – | –
49 | IFAGVHDEKAKPRDRQQAPGLGQE [TLE6] | 4.73 ± 0.2 | 4.81 ± 0.065 | – | –
50 | PALKIYEYHVKPLQTKHLKNNSS [SAMD13] | – | – | 3 ± 0.15 | 3.04 ± 0.2
51 | YTKLPSSLQSTGKCLLYCNGVLEP [SLC25A39] | 2.64 ± 0.62 | 2.23 ± 0.35 | – | –
52 | TATEELEKTQDDLMKHQTNISELK [EPB41L3] | 5.69 ± 0.23 | 5.47 ± 0.39 | – | –
53 | QFTAWPDHGVPEHPTPFLAFLRRV [PTPRD] | 2.44 ± 0.2 | 2.76 ± 0.26 | – | –
54 | NRTLWRLDLAGNNIPGDVLRAVEQ [LRRC45] | 3.01 ± 0.6 | 3.51 ± 0.43 | – | –
55 | LENVFSSLTDDKYDVAMNRAKDLV [GOLPH3L] | 3.89 ± 0.32 | 3.92 ± 0.19 | – | –
56 | LLTVTATDRDEGANGEVTYSFRKL [PCDHGA10] | 4.1 ± 0.26 | 4.15 ± 0.33 | – | –
57 | KLRAMKELSEAAEAQHGPHSAVAR [STX11] | 4.51 ± 0.13 | 4.6 ± 0.17 | – | –
58 | PAQLSEDITRYYLCLQLRDDIVSG [EPB41L3] | 2.3 ± 0.24 | 2.43 ± 0.35 | – | –
59 | LLRRDLGVGTSMEGASPLSERCQR [FANCE] | 4.01 ± 0.15 | 4.17 ± 0.083 | – | –
60 | TGEHREFKLDKKYQRPQDSEDMWG [FBF1] | 4.56 ± 0.23 | 4.55 ± 0.35 | – | –
61 | QEFAARAAKQLEYQQLEDDKLSQK [EPB41L3] | 5.17 ± 0.81 | – | – | –
62 | SGSAGQYGSDQQHHLGSGSGAGGT [MYOZ1] | 4.98 ± 0.21 | 5.12 ± 0.29 | – | –
63 | HRLKLRLAIQEMVSLTSPSAPPTS [PPFIA4] | 2.5 ± 0.43 | 2.46 ± 0.24 | – | –
64 | LEETKGRYCMQLSQIQGLIGSVEE [KRT16] | 3.91 ± 0.17 | 3.91 ± 0.2 | – | –
65 | PSVPCTPAPQVGTQIRTITEEIRD [KRT36] | 5.07 ± 0.36 | 5.22 ± 0.24 | – | –
66 | GRKKYDIDPRNGIPKLTPGDNPYM [SPATS1] | 3.57 ± 0.18 | 3.71 ± 0.32 | – | –
67 | GPAGGLADLSSGSSGEDDDFKSCP [PWWP2B] | 5.43 ± 0.22 | 5.45 ± 0.26 | – | –
68 | PGNPSLHSRFVELSEAYRVLSREQ [DNAJC4] | 3.68 ± 0.44 | 3.81 ± 0.21 | – | –
69 | TGFGQGQGYTINVPWNQVGMRDAD [HDAC6] | 2.89 ± 0.34 | 2.71 ± 0.28 | – | –

Row | Sequence | protein stability index [1] | protein stability index [2] | protein stability index [3] | protein stability index [4]
70 | KILLTKSENARLVLQIDNAKLAAD [KRT36] | 2.99 ± 0.15 | 3.08 ± 0.51 | – | –
71 | INDEMQAKGIPQRAPPKRKRKRVK [PCMTD1] | 5.51 ± 0.23 | 5.36 ± 0.24 | – | –
72 | KDVSRCVAERKYTQEQARKEFQQV [SMOC2] | 4.49 ± 0.16 | 4.51 ± 0.38 | – | –
73 | WFPPAIMGVVSLVFLIIYYLDPSV [ARL6IP1] | 2.52 ± 0.46 | 3.28 ± 0.64 | – | –
74 | WTHVTLLIVVTQSHLVIHNLFEGM [CDS2] | 3.22 ± 0.23 | 3.34 ± 0.35 | – | –
75 | PVSMEMDNHMSDKDESCYDNAEAA [INTS3] | 5.53 ± 0.36 | 5.53 ± 0.23 | – | –
76 | SQHRRIHSGEKPFICKECGKAYGW [ZNF232] | 2.67 ± 0.27 | 2.97 ± 0.64 | – | –
77 | EELLYDYGDRSKASIEAHPWLKH [KMT5A] | – | – | 4.9 ± 0.39 | 4.83 ± 0.28
78 | LKEFDLDALLGIDDLETMPDDLLT [ATF4] | 3.81 ± 0.2 | 4.05 ± 0.38 | – | –
79 | KKNHEEEMKEFSSQLAGQVNVEMD [KRT15] | 5.6 ± 0.12 | 5.59 ± 0.23 | – | –
80 | ESTRELGELLGEARYYLVQGLIED [KCTD13] | 2.88 ± 0.19 | 2.91 ± 0.31 | – | –
81 | MKEPITKAEILESVIKNYEDHFPL [MAGEA10] | 3.98 ± 0.31 | 3.93 ± 0.38 | – | –
82 | PDEGSDLFYDDYYEDGEVEEEADS [CDC34] | 5.36 ± 0.32 | 5.66 ± 0.25 | – | –
83 | CVLRCSVLEIEQSMNRVKNISDAD [FEM1B] | 2.58 ± 0.37 | 2.83 ± 0.24 | – | –
84 | LAVSRPRSSPDDLKALTRNVNRLN [SCARA5] | 3.82 ± 0.22 | 3.84 ± 0.22 | – | –
85 | AFFKRTIQGNIEYSCPATNECEIT [ESRRG] | 3.11 ± 0.25 | 3.23 ± 0.27 | – | –
86 | SQKYKEGKYIIELNHMIKDNGWD [YPEL3] | – | – | 2.94 ± 0.28 | 2.97 ± 0.15
87 | LPDAGSGRQPALRPHVHKQTEKTT [ISL2] | 5.26 ± 0.22 | 5.04 ± 0.23 | – | –
88 | SAAGIEARSRALRRRWCPAGIMLL [SPACA3] | 2.3 ± 0.11 | 2.38 ± 0.15 | – | –
89 | KDGMAFQEALDPGPFDQGSPFAQE [ELF3] | 4.65 ± 0.69 | 4.94 ± 0.12 | – | –

— the supplement of paper PMC10567573
